Data on two substances can be found in patent publication US20260144872A1.

Values joined by “and” are separate entries in the source; they are usually repeats but may differ in a detail not shown here. Identical values can stand only once.

The target in the test is CD16 (activating FcγRIIIa, CD16a) on NK cells (UniProt P08637). Nature of the test: cell-based or functional assay.
Sequence of UniProt P08637 (P08637 17-254 limits assumed): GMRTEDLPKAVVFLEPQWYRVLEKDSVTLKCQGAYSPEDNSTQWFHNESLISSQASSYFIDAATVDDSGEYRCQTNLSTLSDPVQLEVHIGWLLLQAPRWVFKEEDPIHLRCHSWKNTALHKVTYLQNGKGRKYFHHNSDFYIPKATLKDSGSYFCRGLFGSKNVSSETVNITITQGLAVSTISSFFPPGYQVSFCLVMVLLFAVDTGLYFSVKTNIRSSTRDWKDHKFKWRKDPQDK

Substance “a disintegrin and metalloproteinase domain-containing protein 17 (ADAM17) (from UniProt P78536 215-824) (enzyme)” registered a CD16 positive % on NK cells after PMA (1 ug/mL, 1 hour), EP controls (ADAM17 intact) of 0.62 to 6%.

Take “a disintegrin and metalloproteinase domain-containing protein 17 (ADAM17) (from UniProt P78536 215-824)”: the CD16 positive % on NK cells after PMA (1 ug/mL, 1 hour), ADAM17 edited cells was 72.4% and 92%.
